# From the DeepSol protein solubility set
# Assay: soluble on expression in E. coli; label from the status in PepcDB or PDB records
row,Sequence,soluble on expression in E. coli
1,MGSDKIHHHHHHMTNQIKIAVIGVGRWGVHLLRNFLAHPQVDVVAVVDPHPERLAAIKQQFNLDENVVLTTQWEDLKKVPGLTGVAIATPATTHYALIKDSLQQGYHVLAEKPLTLDPAECRELCQLAEQHHLILMVDHTYLFHPAVEQGQTVVQAGKLGDLRYGYATRTHLGPVRQDVDALWDLAIHDIAIFNAWLGQIPVKVQATGTVWLQGAGEQGSREAEGKKDTNFPLPQGLADLVWLTLTYPDGFQAYIHLCWLNPDKQRRLGIVGSLGSLIFDEMSRSSPLTLLHGEFEQQGNHFIPVNQKQVVLELEPGEPLGRVCSCFVDSILNNTPSEVSSGWVGTQLVEILAALTVSLEQGGQPVFLNNCSQV,not soluble
2,MKRVDSVISLIYSLSKSEKKHFSLQVIKDKEEKDYLVIYDIIIKSKQPNGNTVKEEFYRRKPNGSFEVSIQYLYEKLTDTLLTLRKKKDIYYDLLNNLCKARMLYERSLFEECFEILSNTIEQAQFYENNEILTIALKLELEYLLRLNFPNMTEQELFHKHFIQNEALKKIRKITEQSSLHNLLKYRLSHIGSIRTVKQKQDMNDLMVNELYIAASSDSEGNFELTRNHKLFQANYLMGAGDYRAALNSYKELDSLFEQNQQFWSNPPIYYLSVLEGVLGSLRSVSNYDEIPYFLDKLRKLISDSTSLEFKVNATCLLFQYELFPYLDKGDFSKCTQLMADYQEILYDKEAWLGPIRKSELLLYTTLVHIGNQEYKTAKKYISNAIIDHNIKYLPLMRTIRLVRLIVFYEVQEHELIQYESRSITRSLSSPKEQTFKTERIILWFLNKRNIPILKKDREAFWEKLSPEIHELYNNKYESQLLRLFDFTAWMESKIRKEKLSEVLRARASAKEC,not soluble
3,MKIVIIGSGLAGLSAGYRLCKSDEVIIFEKDPDIGGMSASYSIENEGKKYFIEKYYHHIFRSDSELLALIKELGLEKQMLWLKGKNAYFVDGKNYPMNTPVEILHFSPLSILDLAKLGMLVLRIKLIKDTAPYDRIKAKEWILDTAGKSVYENFFAPLMKSKFGDNAENVSAAWVIGRVKIRSDRGAEGEKLGYMRGGFNSLIEALAGEITANGGEIRTDREVTEIVIKANAVQGVKVNGDFIPCDAVISTAEPAVLDAITGGKLGDLHETLKSIRYQGTACALIGLDRSLMEDGNYWLNIKA,not soluble
4,RYPTNNFGNCTGCSATFSVLKKRRSCSNCGNSFCSRCCSFKVPKSSMGATAPEAQRETVFVCASCNQTLSK,soluble
5,MVSSSSGLPSHRGPILSALYPGNGRGGYTASRGIHTSLLFRHRNAKLAWMIPRRLQPLLEARLEKVPVVVLTGPRQAGKTTLALEVAQRREALYLDLESEADRAKLSAPELYLEAHLGRLVILDEVHRMPGLFPLLRSLVDRARRRGLRNGLYLLLGSLAPEVSRQAGESLAGRASYLELSPFDLLEVGREAEPVLWLRGGFPESFLALEDEESFRWRMDFLRSYVEREIPLLGGRLPAEVLRRFLTMLAHLQGELLNASALARNLGLDGRTVNRYLDFLVDLYLLRRLPPLEANVGKRLVKSPKLYLRDSGLVHALLGIRTLEDLLAHPVVGRSYEGFVVENLLRVLPEGGEAYFYRTRAGAEVDLVLLLPGGRFWAVEVKRSLDPRPSRGFHEALKDLKPQEAFVIYPGGETFPVGEGVFAAPLGAVMERLWRG,soluble
6,YIDVKRMMYTLIVSFVFSRVVDSVLDGAYAAKGILIVSNHSEEIGQSLMASLERGVTYLNGEGAYSQVEKRVLYTVVSPREIMEVKRIANEIDEKAFVSIINVHEAIGEGFTYAKPSKQRRFKLKQ,not soluble
7,MNSQDAQNQVPPQKVDQEVDRLALMARAHQAIGELSDILVPLAAAFSSKGHSLYLVGGSVRDAFLGELGHDLDFTTSARPEETKAILDDYADVVWDTGIAFGTLSAEKHGQQIEITTFRSDLYDGNSRNPEVTFGDTLEGDLIRRDFKVNAMAVEIQADGELTFHDPVGGLEDLLTHTLDTPATPEQSFNDDPLRMLRAARFVSQLNFTLAPRVITAMTEMAQQITRITVERMQVELDKMILGKNPEAGIDLMVESGIAQIIYPEIPAMQMTQDEHMQHKDVYAHSLQVMRQAIDQEEDGPDLVLRWAALLHDCGKPDTRDFNEEGRVSFHQHEVVGAKLVRRRMRKLKYSKQMVGDVGQLVFLHMRFHGFSEGQWTDSAVRRYAADAGELLPRLHKLVRADCTTRNKRKAARLQATYDHLEERIAEIAAKEDLARVRPDLDGNEIMEILNIQAGPEVGKAWAFLKELRLERGPLDREVAIAELKSWWEGENNE,not soluble
8,MEDRREALISKLMNMLVENGFSVSGTGFQPVATFDIVARRDVERYILKVLYNIDTLKQSTAYQLIKLAKLLRATAAIIGERTGNGQLEDGVVYYRHGVPISSVNTFESYLNGERPYIYSGPGGFYVRINGELLRERRNELNLSIGNISSYLGVSRRSVSLYENGSAATIDIFIRLRNILKADIVDHIDLFRINSTEINFEEKISDEYIARIIWLLQKYGLDTRPIFKVPFDIVAKDSDEISLIAALIGDAPEPERVRILKKISDVFEDDAFLVSKSNTYRESIGGCAVLTISDLESIEDKDALIGKIEKRAK,not soluble
9,MKIGLIGAGVVGRAIATLAVRAGHQVMLSNSRGPHTLFSLRAAVGCAIGTVDEAAAFGDIGVVAVPLAAYRAVPAAALAGKVVIDTNNYYPERDGAIAELDDKRTTTSELLARHLPASRIVKAFNAITMTDLDRDGRPAGSPNRRALPVAGDDAKGKAIAIALLDAFGFDALDAGPLSQGWRFERGTPAYCVALTRDALEKTLAATTRLEHHHHHH,not soluble
10,CTRAVYLGPDRMVVTGRTMDWKEDIMSNIYVFPRGMQRAGHNKEKTVNWTSKYGSVIATGYDIGTCDGMNEKGLVASLLFLPESVYSLPGDTRPAMGISIWTQYVLDNFATVREAVDEMKKETFRIDAPRMPNGGPESTLHMAITDETGNTAVIEYLDGKLSIHEGKEYQVMTNSPRYELQLAVNDYWKEVGGLQMLPGTNRSSDRFVRASFYIHAIPQTADAKIAVPSVLSVMRNVSVPFGINTPEKPHISSTRWRSVSDQKNKVYYFESTLTPNLFWLDLKKIDFSPKAGVKKLSLTKGEIY,not soluble
11,MGSDKIHHHHHHMVKPDHGRKRQIELTEIGERIYQHAVELLQAEQNIFLEIENYQQLKTGTLKLGVPPLGSQLLTTALFDFHRQWPDIELAFMEVGSRGIEQALLNNELDVGVLLQPFDEQTFNSIELCNYPLMVLLRRDATWATRKKINLEELQHQSFLMFPENFSLNSIILDACKQYGFYPTIACRTSQWHLLADMVLQRMGIALLPQYYTDMLDPTLFAAVPLEKPNIQWHLVMAWKKNLPASPAVQAWLSIVRQHFQHIKP,not soluble
12,MSLDSPTASSNGDLIEEIQASSTSTDPRTFTGLSIVEDIGDVVPVTDNASPALPVSLTDADGNDVVVEDVSRILPLDLYGTYSKTIAGLGLVDNIVGRTVSSTEPALADTEVVTTGGHTLNAEAILNLHPTLVIIDHSIGPREVIDQIRAAGVATVIMSPQRSIASIGDDIRDIASVVGLPEEGEKLAERSVAEVEEASTVVDELTPEDPLKMVFLYARGTGGVFFILGDAYGGRDLIEGLGGVDMAAEKGIMDLAPANAEALAELNPDVFVMMSEGLVSTGGIDGLMERPGIAQTTAGQNQRVLALPDGQSLAFGAQTGELLLRASRELYVQGGEGHHHHHH,soluble
13,GGTAYWKNPDQFTAFNTGLHALLREKSYNFFLLGEPRADIYGDNPIGGEASQGMERLPFNTINKENVGISNYGDMYKIINQINQMIAKTTETTILTEATQNYYLGEAYGMRAYLYFHLLRSWGDVVLYLDYTEGQNLDLSNITKGVSPATEVMEQIKKDIQASENAFGSDYSFKLGRHFWSAAATQMLKGEAYLWSGRQMNGGNSDYTIAKNAFENVKKADVGLVTSSFKDIFSFENKKNKEMIFTIHNGKDEYEMWGGYYRMRLIPAQDKMVKIYCDENGNSFVGTPDAQLNGLTQLQVRREFYFKGFRNNDTRWTTSLKAVYKKDAQGVVSYFGPITYKFQGTMLEGGSTRSFLDDFPIYRYADCLLQLAMAKVLLGEDPTEEINAVRERAYGSKYFNEHKAEIAYPNDNDPEFYTDNKWMKPDNAGALEAILKERLREFMFEGKRWYDIRLLGWDYVHQYSSAEQSRLLWPIDAGTLTNNSALKQTPGYE,soluble
14,MAHHHHHHMDLFSIASNLQQIAIGGVNFVNSKLRKKSATAECNYITYIVIGENEKQPYDTNIFFLPFKICGKIKLEEFKEFFPFKDNVIFRFKIPVSDLIDVINEGIVNHAPLMREDSNERNQVKHIISDENEIKNILRQDQFSHLWVDITSEEAYIPFYNGNIVVKVLFI,not soluble
15,MIEIESRELADIPVLHAYPVGQKDTPLPCVIFYHGFTSSSLVYSYFAVALAQAGLRVIMPDAPDHGSRFSGDEARRLNQFWQILLQSMQEFTTLRAAIAEENWLLDDRLAVGGASMGAMTALGITARHPTVKCTASMMGSGYFTSLARSLFPPLIPETAAQQNEFNKIVAPLAEWEATNHLEQLGDRPLLLWHGLDDDVVPADESLRLQQALSETGRDKLLTCSWQPGVRHRITPEALDAAVTFFRQHL,not soluble
16,ATLKDITRRLKSIKNIQKITKSMKMVAAAKYARAERELKPARVYGVGSLALYEKADIKTPEDKKKHLIIGVSSDRGLCGAIHSSVAKQMKSEAANLAAAGKEVKIIGVGDKIRSILHRTHSDQFLVTFKEVGRRPPTFGDASVIALELLNSGYEFDEGSIIFNRFRSVISYKTEEKPIFSLDTISSAESMSIYDDIDADVLRNYQEYSLANIIYYSLKESTTSEQSARMTAMDNASKNASEMIDKLTLTFNRTRQAVITKELIEIISGAAAL,soluble
17,MGSDKIHHHHHHEQTVKIGILSDMSGPYSDMGGPGSVAAAQLAIDECLAKECKGMKIELLSIDHQNKPDIGVQKAREWADVNKVNAIADLTNSAVALGVQKLTLDHDFVAMYSGPATTKLTNEDCSATGFHWMFDTYALAAGSAQAITKMGGKSWYFLTVDYAFGHSLEADSMAMVKQLGGTVAGSVRHPLNTADMSSFLLQAQSSKAQVVALANGAADTINAIKTAREFGIVQGGQQVVPLLIFLTDIRSLGLEIAQGLTFTEGFYWDQDDQARAFAARFQKAFKDRKPTMVQAGTYSSVLHYLHAVAAAKTTEAKAVSAKMREMPISDAVMRNAAIRPDGRVIHDMLLVKVKSPAESKGDWDFYTIQATIPAAEAFKPLANSACPTVKK,not soluble
18,GPGSMAELHVIGDLAFGEDFGGKSYFCAFEIVTGEHWRVVEGHTSGCTHIMESDSCGGIAWCFPIDVHYTMGSVEGWPKISMQVWSVDGYGRKDLAGYGVAFVPPPGGEEQEVNVETWKPCFWNPNFFIRLYENLREAVMGGGPVLCDKTMIHTNDERFKLRTISSGSVRLHLNVVARGMERLGVRCA,not soluble
19,MGKYFGTDGVRGVANKELTPELAFKIGRFGGYVLTKDTDRPKVIIGRDTRISGHMLEGALVAGLLSTGAEVMRLGVISTPGVAYLTKALDAQAGVMISASHNPVQDNGIKFFGSDGFKLTDEQEAEIEALLDKEVDELPRPTGTNLGQVSDYFEGGQKYLQYIKQTVEEDFSGLHIALDCAHGATSSLAPYLFADLEADISTMGTSPNGMNINDGVGSTHPEVLAELVKEKGADIGLAFDGDGDRLIAVDEKGNIVDGDQIMFICAKYMKETGQLKHNTVVSTVMSNLGFYKALEANGITSDKTAVGDRYVMEEMKRGGYNLGGEQSGHIILLDYITTGDGMLSALQLVNIMKMTKKPLSELAGEMTKFPQLLVNVRVTDKKLALENEKIKEIIRVVEEEMNGDGRILVRPSGTEPLIRVMAEAPTQEVCDAYVHRIVEVVKAEVGAE,not soluble
20,SLQKLQAQGVHHITLVGAGRQTSIDFWEGVLGMPFIFEQPNLDKASESHLYFDPGDGRLITVFTDESRTPQKRRTPTDPGCVHHIAFAVSRVTFLQAVARLDERGIKHSGVKDRGFMDSIYFEDPLGLLIELASYRFEPPAGFTHADVLMQAHRLRVGRGDYNIAEVHLADAIQVLVESSREG,soluble
